From article PMC12439769, “Case of Nisin Oral Ingestion and its LC-MS/MS Detection in Human Urine Over Time: A Case Report” (Archives of clinical and medical case reports, 2025)
No end group written: not given here.

What was measured:
[1] = LC-MS/MS (PRM) detection of nisin in human urine after oral ingestion; format: in vivo
Protocol: (§1) Nisin ZP (Handary S.A; Brussels, Belgium) was ingested by a healthy volunteer. […] Sterile urine was then collected at 4 pm (Sample 1) and 8 pm (Sample 2) on the first day of ingestion, and at 6 am (Sample 3), 8 am (Sample 4), 3:30 pm (Sample 5), and 9 pm (Sample 6) the next day. Urine samples were frozen at −80°C immediately upon collection (Table 1).
Six urine samples, including both standard and nisin-spiked samples, were thawed/prepared then centrifuged at 4000×g to pellet large solute materials/proteins. The supernatant from each sample was then filtered using a 10 kDa MWCO Amicon® Ultra Centrifugal Filter to further remove larger protein molecules. The filtered urine was lyophilized under stringent conditions (−50 °C and 0.1 Torr) for 48 hours to ensure complete dryness. The lyophilized cake was resuspended in 0.1% Trifluoroacetic Acid (TFA) for sample homogenization. A subsequent centrifugation step at 12000×g for 5 minutes allowed for the separation of any remaining particulate matter, with the supernatant being carefully transferred into a clean tube. The supernatant underwent desalting using C18 Stage Tips, which were prepared by equilibration in 1% TFA and 50% Acetonitrile (ACN), followed by a washing solution of 5% ACN and 0.1% TFA, and an elution in 40% ACN with 0.1% TFA. The peptides eluted were vacuum dried and then resuspended in 5% Formic Acid (FA).
Nisin peptide abundance was measured using liquid chromatography coupled to mass spectrometry (LC-MS/MS). After reconstitution in formic acid, the samples were fractionated online by C18 reversed phase chromatography using a Dionex U3000 HPLC to deliver an increasing gradient of acetonitrile. Peptides were eluted and electrosprayed directly in a Thermofisher Fusion Lumos mass spectrometer. Data were acquired using a parallel reaction monitoring strategy in which the +5 precursor ion of full-length nisin was analyzed by MS/MS [51]. The precursor and fragment ion masses for +5 charge state of nisin utilized for Parallel Reaction Monitoring are shown in Table 2. Extracted ion chromatograms were generated for each fragment ion using the Skyline software package. The area under the curve for each fragment ion was summed to calculate an estimate of nisin abundance.

[2] = oral ingestion, encapsulated nisin and nisin powder groups, at 24, 48 and 72 hours; mass spectrometry; cited from earlier work
Excerpt: Like other reports of nisin detection with LC-MS/MS, this project employed similar methods to successfully detect nisin and its fragments in urine samples [44–49]. The ongoing clinical trial (ClinicalTrials.gov; NCT06097468) of nisin in oral cancer patients and studies with larger sample sizes will be helpful to furthe ...

[3] = Tolerability of oral ingestion of nisin; format: in vivo, human; conditions: 20 grams in total, two doses of 10 grams/150 ml of water at noon and 6 pm; one healthy person
Protocol: as §1

[4] = cited from earlier work
Protocol: (§2) Nisin mediates its action in part by interactions with phospholipid bilayers on cellular membranes. Prior pharmacokinetic and pharmacodynamic information indicate that nisin can be absorbed via epithelial tissues. Nisin can be absorbed through the vaginal epithelium into the circulation following intravaginal administration in rabbits. Maximum levels of nisin were detected in blood samples after 1 h of treatment. […] Further, Dreyer et al. reported the migration of nisin a ...

[5] = test system: gastrointestinal epithelial and vascular endothelial cells; conditions: in vitro; ref 35 (Dreyer et al.); cited from earlier work
Protocol: as §2

[6] = Western blotting of nisin in urine samples after oral ingestion; format: in vivo, human
Protocol: as §1
The urine samples were filtered using a 10 kDa MWCO Amicon® ultra centrifugal filter (Cat No: UFC201024, Millipore). The filtrate was used to analyze nisin, while the top retained fraction was used to check for potential nisin-binding proteins that might bind to and shift nisin to a higher molecular weight.
Western blot analyses were performed on the filtrate and top fractions from the urine samples to detect nisin and nisin binding proteins, respectively. Samples were normalized by equal protein concentration (125 μg) and then mixed with 4X Laemmli sample buffer (Cat. No. 1610747, Bio-Rad) containing β-ME (3:1). The proteins were resolved by 16% Tricine SDS-PAGE (Invitrogen, Cat No. EC6695) then transferred to Immobilon-P membranes. The blots were probed with a custom polyclonal affinity-purified rabbit nisin antibody (proprietary to Kapila lab). The antibody against nisin was produced by co-immunizing rabbits with four short nisin peptide sequences (Pacific Immunology, Ramona, CA). Blots were incubated with horseradish peroxidase-conjugated anti-rabbit antibody (SC-2004, Santa Cruz Biotechnology) and then developed with the ECL-plus detection system (Thermo Fisher Scientific).

[7] = rabbits, intravaginal administration

Nisin ZP: Natural bacteriocin made by Lactococcus lactis, food preservative; Nisin ZP from Handary S.A, Brussels, Belgium (ITSISLCTPGCKTGALMGCNMKTATCNCSIHVSK; also: lantibiotic nisin-Z: thioether rings and dehydro residues not placed; UniProt P29559 24-57, looked up)
Time of maximal nisin levels detected in urine ([1]; after first oral 10 g dose, LC-MS/MS, earliest sample collected at 4 h, n = 1 subject): 4 h | Nisin detection in urine samples 1–4 by LC-MS/MS ([1]; one healthy person, oral 2 x 10 g/150 ml water at noon and 6 pm, urine 4, 8, 18, 20 h after first ingestion, 10 kDa MWCO filtrate, lyophilized, C18 desalted, PRM of +5 precursor, summed fragment AUC): detected | Time window of nisin detection in urine after the first ingestion ([1]; oral 10 g/150 ml at noon, second 10 g at 6 pm, LC-MS/MS, n = 1 subject, no urine collected before 4 h): 4 to 20 h | Nisin detection in urine samples 5–6 by LC-MS/MS ([1]; same subject and regimen, urine 27.5 and 33 h after first ingestion (21.5 and 27 h after second), PRM of +5 precursor): not | Time of nisin detection in urine after the second ingestion ([1]; second oral 10 g/150 ml dose at 6 pm, LC-MS/MS, n = 1 subject): up to 14 hours | Integrity of nisin passing through the porcine gastrointestinal tract [2]: remains intact | Tolerability of oral ingestion [3]: well tolerated without any adverse events | Stability in the harsh conditions of the gastric environment [4]: partially stable | Time at which blood levels declined to baseline [4, 7]: 12 h | Time of maximum levels of nisin in blood samples [4, 7]: 1 h | Migration across gastrointestinal epithelial and vascular endothelial cells [5]: migration of nisin across gastrointestinal epithelial and vascular endothelial cells | Nisin detection in urine samples 2 through 6 by immunoblotting ([6]; <10 kDa filtrate, urine 8–33 h after first ingestion, anti-nisin rabbit polyclonal antibody): did not detect | Nisin detection at approximately 3.3 kDa in urine sample 1 by immunoblotting ([6]; <10 kDa filtrate, urine 4 h after first ingestion, anti-nisin rabbit polyclonal antibody, 16% Tricine SDS-PAGE): detected | High molecular weight nisin-positive band at approximately 40 kDa in urine sample 1 ([6]; >10 kDa retained fraction, urine 4 h after first ingestion, suggests a potential nisin-binding protein): nisin-positive band
